Data on 6 molecules can be found in paper PMC9599461, “Stereoselectivity in the Membrane Transport of Phenylethylamine Derivatives by Human Monoamine Transporters and Organic Cation Transporters 1, 2, and 3” (Biomolecules, 2022).

“And” between values parts separate entries of the source, which are not always exact repeats. Equal entries are not always repeated.

Data set [1] relates to Alpha-1 adrenoreceptor. Conditions: cited from earlier work.
For data set [2], the system named is Alpha-2 adrenoreceptor. More on the design: method as in PMID 2833972. The conditions noted are these: cited from earlier work.
Data set [3] deals with OCT2 A270S variant. Kind of data set: in vitro. The conditions noted are these: human, Stereoselectivity OCT2_A270S, 100 μM racemic substance, two minutes; uptake ratio of enantiomers, given as for (R).
The target of data set [4] is T1, OCT3 (Homo sapiens, UniProt O75751).
T1 sequence (O75751 1-556): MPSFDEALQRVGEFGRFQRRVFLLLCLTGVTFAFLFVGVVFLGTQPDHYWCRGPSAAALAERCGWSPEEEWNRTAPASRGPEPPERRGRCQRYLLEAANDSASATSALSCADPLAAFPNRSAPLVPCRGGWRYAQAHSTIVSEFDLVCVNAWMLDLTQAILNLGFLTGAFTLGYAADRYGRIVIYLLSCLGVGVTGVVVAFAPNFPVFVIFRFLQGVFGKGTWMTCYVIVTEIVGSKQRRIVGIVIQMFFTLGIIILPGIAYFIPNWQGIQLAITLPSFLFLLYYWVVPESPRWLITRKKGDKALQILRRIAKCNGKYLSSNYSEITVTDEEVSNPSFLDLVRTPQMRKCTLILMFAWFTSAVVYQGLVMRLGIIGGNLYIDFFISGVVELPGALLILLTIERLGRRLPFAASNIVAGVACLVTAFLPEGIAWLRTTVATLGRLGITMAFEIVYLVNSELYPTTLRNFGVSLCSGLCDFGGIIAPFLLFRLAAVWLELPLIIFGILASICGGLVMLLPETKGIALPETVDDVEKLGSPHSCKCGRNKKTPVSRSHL
The data set can be described thus: Stereoselective uptake into OCT3-overexpressing HEK293 cells. Conditions: OCT3; ratio between enantiomers, given as for (R) or for 1.

Data set [5] concerns the target T2, OCT2 (wild-type) (Homo sapiens, UniProt O15244).
T2 sequence (O15244 1-555 S270A): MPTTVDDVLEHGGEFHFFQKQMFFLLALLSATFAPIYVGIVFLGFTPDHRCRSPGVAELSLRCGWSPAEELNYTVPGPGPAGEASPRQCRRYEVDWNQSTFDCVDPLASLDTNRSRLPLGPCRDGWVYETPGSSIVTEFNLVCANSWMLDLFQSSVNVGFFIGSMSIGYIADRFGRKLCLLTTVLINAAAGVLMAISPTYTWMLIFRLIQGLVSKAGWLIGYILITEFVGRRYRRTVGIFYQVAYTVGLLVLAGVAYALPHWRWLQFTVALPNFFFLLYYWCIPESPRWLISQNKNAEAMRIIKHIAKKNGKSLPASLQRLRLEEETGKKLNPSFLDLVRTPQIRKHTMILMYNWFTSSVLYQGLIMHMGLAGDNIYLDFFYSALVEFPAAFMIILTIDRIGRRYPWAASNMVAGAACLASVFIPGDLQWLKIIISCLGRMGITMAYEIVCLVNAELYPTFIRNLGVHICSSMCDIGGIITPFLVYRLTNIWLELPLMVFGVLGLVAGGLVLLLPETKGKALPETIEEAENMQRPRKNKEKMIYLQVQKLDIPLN
Kind of data set: Stereoselective uptake into OCT2 (wild-type)-overexpressing HEK293 cells. Conditions: human, 100 μM racemic substance, two minutes, uptake ratio of enantiomers, given as for (R).

Data set [6] has as its target SERT (Homo sapiens, UniProt P31645). The data set can be described thus: Stereoselective uptake into SERT-overexpressing HEK293 cells. The conditions noted are these: SERT; ratio between enantiomers, given as for (R) or for 1.
Data set [7] has as its system OCT2 A270S variant. Kind of data set: Stereoselective uptake into OCT2 A270S variant-overexpressing HEK293 cells.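 Also: uptake into HEK293 cells stably overexpressing human OCT2 variants, intracellular enantiomers quantified by chiral HPLC-MS/MS and normalized to total protein.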 The conditions noted are these: human, HEK293 cells stably overexpressing human OCT2 A270S variant.
Data set [8] relates to CNCC(O)c1ccc(O)c(OC)c1. Kind of data set: cells, lysate or membranes. Conditions: other: HEK293 cells overexpressing human SERT; racemic substrate, two minutes; net uptake minus empty vector control; 37.0 °C.
For data set [9], the system named is CNC[C@@H](O)c1ccc(O)cc1. The data set can be described thus: cells, lysate or membranes. The conditions noted are these: other: HEK293 cells overexpressing human SERT; racemic substrate, two minutes; net uptake minus empty vector control; 37.0 °C.
The test system of data set [10] is COc1cc(C(O)CN)ccc1O. Kind of data set: cells, lysate or membranes. The conditions noted are these: other: HEK293 cells overexpressing human SERT; racemic substrate, two minutes; net uptake minus empty vector control; 37.0 °C.
Data set [11] deals with NCC(O)c1cccc(O)c1. Kind of data set: cells, lysate or membranes. Conditions: other: HEK293 cells overexpressing human SERT; racemic substrate, two minutes; net uptake minus empty vector control; 37.0 °C.
Data set [12] relates to NC[C@@H](O)c1ccc(O)cc1. The data set can be described thus: cells, lysate or membranes. Conditions: other: HEK293 cells overexpressing human SERT; racemic substrate, two minutes; net uptake minus empty vector control; 37.0 °C.
Data set [13] deals with NC[C@H](O)c1ccc(O)cc1. The data set can be described thus: cells, lysate or membranes. Conditions: other: HEK293 cells overexpressing human SERT; racemic substrate, two minutes; net uptake minus empty vector control; 37.0 °C.
Data set [14] relates to [H][C@](O)(CNC)c1ccc(O)cc1. Kind of data set: cells, lysate or membranes. The conditions noted are these: other: HEK293 cells overexpressing human SERT; racemic substrate, two minutes; net uptake minus empty vector control; 37.0 °C.
Substrate in data set [15]: CNCC(O)c1ccc(O)c(OC)c1
The data set can be described thus: cells, lysate or membranes. Conditions: racemic substrate, two minutes, net uptake minus empty vector control, 37.0 °C.

Substrate in data set [16]: CNC[C@@H](O)c1ccc(O)cc1
Kind of data set: cells, lysate or membranes. Conditions: racemic substrate, two minutes, net uptake minus empty vector control, 37.0 °C.

Substrate in data set [17]: CNC[C@@H](O)c1cccc(O)c1
Kind of data set: cells, lysate or membranes. The conditions noted are these: racemic substrate, two minutes, net uptake minus empty vector control, 37.0 °C.

Substrate in data set [18]: CNC[C@H](O)c1cccc(O)c1
Kind of data set: cells, lysate or membranes. Conditions: racemic substrate, two minutes, net uptake minus empty vector control, 37.0 °C.

Substrate in data set [19]: COc1cc(C(O)CN)ccc1O
The data set can be described thus: cells, lysate or membranes. Conditions: racemic substrate, two minutes, net uptake minus empty vector control, 37.0 °C.

Substrate in data set [20]: NC[C@@H](O)c1ccc(O)cc1
Kind of data set: cells, lysate or membranes. The conditions noted are these: racemic substrate, two minutes, net uptake minus empty vector control, 37.0 °C.

Substrate in data set [21]: NC[C@H](O)c1ccc(O)cc1
The data set can be described thus: cells, lysate or membranes. The conditions noted are these: racemic substrate, two minutes, net uptake minus empty vector control, 37.0 °C.

Substrate in data set [22]: [H][C@](O)(CNC)c1ccc(O)cc1
The data set can be described thus: cells, lysate or membranes. The conditions noted are these: racemic substrate, two minutes, net uptake minus empty vector control, 37.0 °C.

Substrate in data set [23]: NCC(O)c1cccc(O)c1
The data set can be described thus: cells, lysate or membranes. Conditions: other: HEK293 cells overexpressing human OCT3; racemic substrate, two minutes; net uptake minus empty vector control; 37.0 °C.

Where [24] appears, read: other: HEK293 cells overexpressing human OCT1.
Setting [25] is: other: HEK293 cells overexpressing human OCT3.

For the molecule `NCC(O)c1cccc(O)c1` (stereo not shown) [Norphenylephrine], the “Enantiomeric Activity Ratio (R/S) in Receptor Binding Alpha-1” value in data set [1] is listed as 8. Moreover, the “Enantiomeric Activity Ratio (R/S) in Receptor Binding Alpha-2” value in data set [2] is on record as 3. Further, the values for the selectivity ratio at 2 min, 100 μM in data set [3] and in data set [5] (Stereoselectivity OCT2_WT) were 1.46 and 1.54, respectively. Also, the “Stereoselectivity Vmax” value in data set [4] is reported as 3.9 fold.

Turning to `NCC(O)c1ccc(O)cc1` (stereo not shown) [Octopamine], in [1], the “Enantiomeric Activity Ratio (R/S) in Receptor Binding Alpha-1” value was 5. Moreover, the “Enantiomeric Activity Ratio (R/S) in Receptor Binding Alpha-2” value in data set [2] is recorded as 3. The “Stereoselectivity Vmax” value in data set [6] is given as 2.4 fold. In addition, the selectivity ratio at 2 min, 100 μM in [5] (HEK293 cells stably overexpressing human wild-type OCT2, Stereoselectivity OCT2_WT) came out at 1.74; in data set [7], 1.69.

Regarding `CNC[C@H](O)c1cccc(O)c1` [Phenylephrine], the “Enantiomeric Activity Ratio (R/S) in Receptor Binding Alpha-1” value in data set [1] is reported as 420. The “Enantiomeric Activity Ratio (R/S) in Receptor Binding Alpha-2” value in data set [2] is 45. Also, the selectivity ratio at 2 min, 100 μM in data set [3] came to 1.16; in [5] (Stereoselectivity OCT2_WT) it was 1.3. Further, in data set [4], the “Stereoselectivity Vmax” value was 3.3 fold.

For SERT (Homo sapiens), the Km – broadly, the concentration of substrate that gives half-maximal velocity – in [8] was 151 µM and 165 µM; in data set [9] it was 804 µM; in data set [10] it was 42.0 µM and 38.7 µM; in [11], 333 µM and 277 µM; in [12], 42.9 µM; in data set [13], 59.6 µM. The Km in [14] stood at 528 µM. Further, the Vmax in data set [8] is 87.4 pmol × mg Protein^−1 × min^−1 and 94.5 pmol × mg Protein^−1 × min^−1; in data set [9], 491 pmol × mg Protein^−1 × min^−1; in [10], 93.6 pmol × mg Protein^−1 × min^−1 and 157 pmol × mg Protein^−1 × min^−1; in [11], 400 pmol × mg Protein^−1 × min^−1 and 508 pmol × mg Protein^−1 × min^−1; in data set [12] it was 104 pmol × mg Protein^−1 × min^−1; in [13] it was 247 pmol × mg Protein^−1 × min^−1. In data set [14], the Vmax was 363 pmol × mg Protein^−1 × min^−1.

B1: OCT1 (Homo sapiens) (protein)
chain: MPTVDDILEQVGESGWFQKQAFLILCLLSAAFAPICVGIVFLGFTPDHHCQSPGVAELSQRCGWSPAEELNYTVPGLGPAGEAFLGQCRRYEVDWNQSALSCVDPLASLATNRSHLPLGPCQDGWVYDTPGSSIVTEFNLVCADSWKLDLFQSCLNAGFLFGSLGVGYFADRFGRKLCLLGTVLVNAVSGVLMAFSPNYMSMLLFRLLQGLVSKGNWMAGYTLITEFVGSGSRRTVAIMYQMAFTVGLVALTGLAYALPHWRWLQLAVSLPTFLFLLYYWCVPESPRWLLSQKRNTEAIKIMDHIAQKNGKLPPADLKMLSLEEDVTEKLSPSFADLFRTPRLRKRTFILMYLWFTDSVLYQGLILHMGATSGNLYLDFLYSALVEIPGAFIALITIDRVGRIYPMAMSNLLAGAACLVMIFISPDLHWLNIIIMCVGRMGITIAIQMICLVNAELYPTFVRNLGVMVCSSLCDIGGIITPFIVFRLREVWQALPLILFAVLGLLAAGVTLLLPETKGVALPETMKDAENLGRKAKPKENTIYLKVQTSEPSGT
As for B1, the Km was 134 µM and 146 µM in data set [15] (setting [24]); 111 µM in [16] (setting [24]); 178 µM in data set [17] (setting [24]); 175 µM in data set [18] (setting [24]); 806 µM and 1279 µM in data set [19] (setting [24]); 281 µM in data set [20] (setting [24]). Also, the Km in [21] (setting [24]) was 291 µM; in data set [22] (setting [24]) it was 86.7 µM. Moreover, the Vmax in data set [16] (setting [24]) is 1348 pmol × mg Protein^−1 × min^−1; in data set [17] (setting [24]), 1578 pmol × mg Protein^−1 × min^−1; in data set [18] (setting [24]), 1710 pmol × mg Protein^−1 × min^−1; in [19] (setting [24]), 2137 pmol × mg Protein^−1 × min^−1 and 3145 pmol × mg Protein^−1 × min^−1; in data set [20] (setting [24]), 1211 pmol × mg Protein^−1 × min^−1; in [21] (setting [24]) it was 1318 pmol × mg Protein^−1 × min^−1. Moreover, the Vmax in data set [22] (setting [24]) is reported as 1817 pmol × mg Protein^−1 × min^−1.

B2: OCT3 (Homo sapiens) (protein)
chain: T1 sequence (O75751 1-556)
As to B2, the Km in data set [15] (setting [25]) was 29.0 µM and 24.4 µM; in data set [16] (setting [25]), 75.3 µM; in data set [17] (setting [25]), 205 µM; in data set [18] (setting [25]) it was 244 µM; in data set [19] (setting [25]), 75.9 µM and 62.4 µM; in data set [23], 582 µM and 498 µM. The Km was found to be 20.1 µM in data set [20] (setting [25]), 25.1 µM in data set [21] (setting [25]) and 83.5 µM in data set [22] (setting [25]). In addition, the Vmax in data set [15] (setting [25]) is 752 pmol × mg Protein^−1 × min^−1 and 635 pmol × mg Protein^−1 × min^−1; in data set [16] (setting [25]) it was 2090 pmol × mg Protein^−1 × min^−1; in data set [17] (setting [25]) it was 866 pmol × mg Protein^−1 × min^−1; in data set [18] (setting [25]) it was 2885 pmol × mg Protein^−1 × min^−1; in [19] (setting [25]) it was 1473 pmol × mg Protein^−1 × min^−1 and 1352 pmol × mg Protein^−1 × min^−1; in data set [20] (setting [25]), 1072 pmol × mg Protein^−1 × min^−1. For the same molecule, the Vmax in data set [21] (setting [25]) is 972 pmol × mg Protein^−1 × min^−1; in data set [22] (setting [25]), 2193 pmol × mg Protein^−1 × min^−1.
